The numbers were not newly measured in paper PMC9428257, which cites them from elsewhere.

As a reminder, the Kd is the free concentration of one partner at which half of the binding sites on the other are occupied at equilibrium, for simple one-to-one binding.

Where “and” joins values, the source holds several entries; their conditions need not be identical. Equal values may be shown once. Read-outs that look alike come from different tables or passages of the source.

Series [1] addresses APRIL (Homo sapiens) (UniProt O75888).
The target is the same in series [2]. The source holds these as a separate data set.
Series [3] concerns the target BAFF (Homo sapiens) (UniProt Q9Y275).

Chain of APRIL (Homo sapiens) (O75888 105-250): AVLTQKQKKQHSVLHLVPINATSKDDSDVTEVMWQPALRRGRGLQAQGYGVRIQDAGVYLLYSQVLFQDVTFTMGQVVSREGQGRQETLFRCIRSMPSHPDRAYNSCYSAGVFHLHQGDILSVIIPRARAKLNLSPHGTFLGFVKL
Chain of sBCMA ECD (Q02223 78-184): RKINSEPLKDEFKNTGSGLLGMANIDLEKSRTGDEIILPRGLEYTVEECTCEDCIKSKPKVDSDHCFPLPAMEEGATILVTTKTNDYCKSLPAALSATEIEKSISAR
Chain of sTACI-Fc ECD (O14836 1-165): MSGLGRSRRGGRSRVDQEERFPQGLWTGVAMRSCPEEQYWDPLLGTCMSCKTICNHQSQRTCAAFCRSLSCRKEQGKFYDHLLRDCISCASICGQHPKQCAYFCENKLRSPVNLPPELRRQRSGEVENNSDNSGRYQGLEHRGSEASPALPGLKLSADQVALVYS
Chain of BAFF (Homo sapiens) (Q9Y275 134-285): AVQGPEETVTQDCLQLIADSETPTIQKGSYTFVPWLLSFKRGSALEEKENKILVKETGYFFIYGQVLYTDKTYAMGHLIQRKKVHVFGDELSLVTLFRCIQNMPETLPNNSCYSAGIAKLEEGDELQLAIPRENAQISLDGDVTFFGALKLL

Consider sBCMA ECD (from UniProt Q02223), for which the Kd in series [1] is 0.025 nM and 0.048 nM.
sTACI-Fc ECD (from UniProt O14836): the Kd in series [2] was 6.4 nM; in series [3] it was 0.16 nM.
